assay: soluble on expression in E. coli; label from the status in PepcDB or PDB records

Sequence | soluble on expression in E. coli
MGSDKIHHHHHHMFGLIPKEEKFFAMFKDMAANIVTGGKLLKQMLDSYDDPQASQKKIKDVEHACDAITHDIIQKLNKSFVTPFDREDIYALAAALDDIVDLIDASAQRFIMYNVEKPTPEAKELAFLILQGCLAIEKAVSHLGEKFEHIAEHCVEVNALENEADRVCREAISRLFDEEKDPIQLIKWKEIYETLERATDKCEDAANILESVVVKNA | not soluble
MSSGRNISCRMATRSCFFRLLQGVEMLRIADKTFDSHLFTGTGKFASSQLMVEAIRASGSQLVTLAMKRVDLRQHNDAILEPLIAAGVTLLPNTSGAKTAEEAIFAAHLAREALGTNWLKLEIHPDARWLLPDPIETLKAAETLVQQGFVVLPYCGADPVLCKRLEEVGCAAVMPLGAPIGSNQGLETRAMLEIIIQQATVPVVVDAGIGVPSHAAQALEMGADAVLVNTAIAVADDPVNMAKAFRLAVEAGLLARQSGPGSRSYFAHATSPLTGFLEASA | soluble
SLQGKPTISVPEFKNDTNMSWWWWSGNTSRELADALSNELTSTGNFQVVERQNLGSVLSEQELAELGLTRPETSAQRGQLTGAQYIVLGRVTAYEEGVSSESGGNNFGLNLGLFSIGNSERQAKQEAYVAIDLRVVDSSTGEVVYARTVEGRATDTAASSANNVNILGIVNTGQDNQSTSRAPVGKALRAGLVEITDYLSCVMVEQDNCIQEYQDKDRQRRQKTKDTLILE | soluble
MSLKPSDFVKYLQRMIALTDTGLTFTKDPFDRERYEDLRSLLSEMLNQVSDLDAEEVAEVLKPTSAYATPLMDVRAWIVEDEKICLVRRQGEDSWALPGGFGEVGYSPTENILKEIEEETGFKAKVERLLAVFDTNRFQLQSKQYAKFVFECKLLDGQFQENQEIAALQFFTIDQLPNLSEKRITKEQIEILWQVYQGQREQYLDEGGSHHHHHH | soluble
SASAVFEGTSLVNMFVRGCWVNGIRRLIVSRRGDEEEFFEIRTEWSDRSVLYLHRSFADLGRLCKRLRDAFPEDRSELARTPLRQGLLAIKGAHDIETRLNEVEKLLETVISMPCKYSRSEVVLTFFERSPLDQVLKNDNVHKIQPSFQSPVKISEAKEGTGALRTGVVDGCEPPGGCWELSVGLLEEHQVFLTAERIFSPRKAFLRNHEVQWILFGKHRDHSH | soluble
MQANGVWSLQPLADMSAAEFRDWQVLLENRTGVVLNEQRRTFLQASLTARMRELGIGDYHSYYRQVTDGPRGAVEWATLLDRLTVQETRFFRHPPSFELLERYLGERLRREGMPRPWALWSVGCSSGEEPYSLAMCAAQVLRGQEREDFFGVTGTDISLHALQRARQANYPARKLEQLEAGLVERYCERQADGSFSVKTILTERVCCARLNVLDLAKAPWSGMDVIFCQNLLIYFRRWRRREILNRLAERLAPGGLLVIGVGEVVDWSHPELEPVADERVLAFTR | not soluble
SQYKNISEKIVHIIQQEFDTDLTLESIAGRLHYNPNYLSSIFRKEMKISFSEYLSSYRHHIAKNWLTETTMSVKEISEKLKYKNPQNFIRSFKKLEGITPGKYRELKNHS | soluble
MPVVNIPIKILGQNQSHSRSNSSSSVDNDRNQPPQQPPQPQPQQQSQQQYQQAPNVNTNMHHSNGFSPNFPSRSPIPDFPSFSSGFPNDSEWSSNFPSFPNFPSGFSNGSSNFPDFPRFGRDGGLSPNPPMQGYRRSPTPTSTQSPTSTLRRNSQQNQAPPQYSQQQPQQAQQRQTTPPSTKASSRPPSRTREPKEPEVPERPAVIPLPYEKKEKPLEKKGSRDSGKGDENLEENIAKITIGKNNCELCPEQETDGDPSPLTSPITEGKPKRGKKLQRNQSVVDFNAKTIVTLDKIELQVEQLRKKAAELEMEKEQILRSLGEISVHNCMFKLEECDREEIEAITDRLTKRTKTVQVVVETPRNEEQKKALEDATLMIDEVGEMMHSNIEKAKLCLQTYMNACSYEETAGATCQNFLKIIIQCAADDQKRIKRRLENLMSQIENAERTKADLMDDQSE | not soluble
MGSDKIHHHHHHMSLSYLQTSLDRIDAAARDDVIEICINPDGSCWGEFQGDHFMRKLDQALTATEVKDLGNQIASSANTTMSKDRPIVSVSITYKGRPIRAQVITPPAVLSAMSISLRFFSSLPLDGIALDFLYGKERKLEKLRLKKTRELREVVAAGVIDDALAFCVDNKLNMIVSGGTSTGKTVAARKILSHVPADERIVTIEEAAELLPTQPNAVTLIANRDAEFQTADVLLTATLRMRPDRIILGEVRGKEAMTFLEAINTGHGGSMTTLHAETPQLAVQRLAIAALKTEIPMTYADMIQYIENSIDVIIQAGRHDGRRGITEFYLPGATEIGVSQ | not soluble
MMKPNIDFKRLKAYVQANGSYSLVVKGDSIEVHFSPNFPEAIPHLPDNLPVEHIMYGKVENGIVYFYRFETISSFGTTYNDLTDDDPIMEWLKYI | not soluble
AFSGTWQVYAQENYEEFLKALALPEDLIKMARDIKPIVEIQQKGDDFVVTSKTPRQTVTNSFTLGKEADITTMDGKKLKCTVHLANGKLVTKSEKFSHEQEVKGNEMVETITFGGVTLIRRSKRV | soluble
DIHPYSVSYSWDKQVEDEDHMEVFPAGSSFPSTKLITLNRTGDFSMAASYTDITQLPPNTPEQIANWEITGVQLPEGQDSVPVKLKLRCDPSGLHTIEEAYTIEDIEVEEPIPLPEDAPEDAEQEFKKVTKTVKKDDLTIVAHTFGLDAKKLNELIEKENEMLAQDKLVAETEDRKNTLE | not soluble
MKLEASCGTATSEVPKPEKKTARDAEPSSETRPQEVEAEPRSGSGPEAEAEPLDFVVATERESEEVLAISGGIYGGLDYLPSRYHSWLRDPDRTVVLAKRNGGVIALESVNVIDAGETVLVEGLRVAPWERGKGVAGLLQRFCSQLVKRQHPGVKVARLTRDDQLGPRELKKYRLITKQGILLVRFNASALLAGLGARLAALRTSGTFSPLPTEAVSEAGGDVARLLLSPSVQRDVLPGGTIIQDWQPYRPSESNLRLLAAKGLEWRVDSRARPRVLTLCTRPFPIPHGGDGTWRYLNIDAFGSDGAQVQSQLLWHLQRQAPRLVGLNVMCQLFLEPQLWSQLADFCQVGLGLELVKGYTEQYLLEADI | soluble
MLAHIKITHFAIVKSLELDLTKGMTTITGETGAGKSIAIDALGLCLGDRAEASMVRQGEEKAEITVLFTLENNINAKRWLEDNELYDGNDCILRRVITKEGRSRGFINGSPVPAAQLKTLGHLLINIHGQHAHHELMKPEYQLNMLDQYAGHVSLLNKTRSRYQAWRQA | not soluble
GRMENEESDVKPPDWPNPMNATSQFPQPQHFDSFGLRLPRDITELPEWSEGYPFYMAMGFPGYDLSADDIAGKFQFSRGMRRSYDAGFKLMVVEYAESTNNCQAAKQFGVLEKNVRDWRKVKPQLQNAHAMRRAFRGPKNGRFALVDQRVAEYVRYMQAKGDPITREAMQLKALEIAQEMNIPEKGFKASLGWCRRMMRRYDLSLRHKVPVPQHLPEDLTEKLVTYQRSVLALRRAHDYEVAQMGNADETPICLEVPSRVTVDNQGEKPVLVKTPGREKLKITAMLGVLADGRKLPPYIILRGTYIPPGKFPSGMEIRCHRYGWMTEDLMQDWLEVVWRRRTGAVPKQRGMLILNGFRGHATDSVKNSMESMNTDMVIIPGGLTSQLQVLDVVVYKPLNDSVRAQYSNWLLAGNLALSPTGNAKKPPLGLFLEWVMVAWNSISSESIVQGFKKCHISSNLEEEDDVLWEIESELPGGGEPPKDCDTESMAESN | soluble
MGSDKIHHHHHHMGKKHTSSYEVAYYDGDFTGAMKIPALLAVVIKVSEEQTELLGRDAAYVAQFGLGWVITNYEIEIHRLPKVGEKVAITTQAMSYNKYFCYRNFWVHDEEGKECVFVKSTFVLMDQKNRKISSVLPEIIAPFASAAITKIYRHEKIEKVTEGNFLPYRVRFFDIDGNQHVNNAIYFNWLLDVLGYDFLTTHQPKKILVKFDKEVEYGQEVESHYEIVEQENQLKTRHEIRIDGQTYCEANIDWTN | not soluble
PVERMRMRPWLEEQINSNTIPGLKWLNKEKKIFQIPWMHAARHGWDVEKDAPLFRNWAIHTGKHQPGIDKPDPKTWKANFRCAMNSLPDIEEVKDRSIKKGNNAFRVYRMLP | soluble
MGSDKIHHHHHHMEFHEIDRMAKKLGADIFGVADLDLLREYETFPENLLDSFDFGISIGVKLPDPLFDMLPDSRNLYSRYYVVANDMLDRIAFEISRAIESEGYEALPIPASKVLSDLHWRSYVSHKAIARAAGVGWVGRNLLLITPQFGPRVRLASVLTDMPLKAGKPARNRCGVCRECIDSCITQALRYSEFDDYPERDEVFEVDKCAAKLKEFASNPDIGTMVCGICIKVCPWGKLGNKTKGN | not soluble
MSLREINMLRNISSCLFPHISTITSPNHYLSEWDDWEKQGLPEEQRTEAVRRLRACLTSKGHKLDLRALALSSLPVLPACIKKLDVSCNKLTILTDLPENIKELIARDNFLTHISALPHYLITLDVSENQLENLPLLPDTIKSLSAEYNRLSTLPSLPLNLKKLEVRNNELQTLPSLPSNLKILKVAHNHLTELPPLPRRLQLLFAYSNRLSNLPNIQENIIMRRFFYFENNQITTIPTNLFRLDPHITIEIANNPLSDQTLLFLIQQTSVPNFNGPQFRISLSDEGHHHHHH | soluble
MGSDKIHHHHHHMNTKDLAYFDELISQKNFSKVAKTFGVSQPTVTTAIKRLESEFGAPLVIRDRVKNTLHVTASGAQLAEHAKIVLHELRLAHQEIDNLSQNRLILGLPPIIENHYFPKIGARLAAEGLLAGLETIEGGSIWLRNAVRDGRVDMTLLGSVEPLAYQTLIAEEFDRQPFCIYVSKQHPLAQRKRVYFNELRREKFVFFNSNFIHNTAFNKLTRRNHFRPNIVFRSNDTHVLMKLIGENVGIGFFTKIVDHYRTDVVRLDLMDIEPPEFITSIVYRTTHILTPVQQQLLTILHETLAVDTDQTD | not soluble
MISIIYLFIPILLASAVPTSDVLSTRIKALEQVFIVFYCKPSCRFNETQLNSVTIKSFPKCKEVCGIIFIDSETDLTVEQMKKAFEKMRTLKGGFNIENTSLTSLSVFTADKEKGNFNVVGVGNSAAAMTSTKLLAERLKQKNGVYIRNNSQLNDPSVLYDLYLYRDRGIEACDIRIENNPKLEFSCDGGFLHMYNELIVRGNLKDCGCDGEKVNVSNVKEYSKCKTLDSGLNLVNINATFDYDSFLNVTMIRGSIAIRNTNLQSLSFLQNLQTIEYNSDIASVALNVQDNPEMIRLGLPILTKVIDTVEQTSMIQYSTYNKRQYFNFENLHPDFCVTITEIVALLNLGISTENIEAKLCKDPGPLDASFYCTFESMSKLSDTCMYILGDLLIDHEDEKYVSKLGVLQFLFGTLTIRNTNLTDLNFLDQMTYIGALNGNVTYFPVIQIYSNPNLRNVGLNGIMNIITKGNRTAIIQDNHPDLFKSTPCQLFGAYFSNPAMENRVNLTYIGSNCGERVHITSSQSGRISIGLSFSLFVLFWSFKSN | not soluble
GSHMAPADYFRVLVQQFEVQLQQYRQQIEELENHLATQANNSHITPQDLSMAMQKIYQTFVALAAQLQSIHENVKVLKEQYLSYRKMFLGDAG | soluble
MSLTPRFIDLHTHTTASDGSDSPADLVRKATEAGLAAVAVTDHDTVAGLDEAVAMGHETGIEVVRGCELGVRSEYGEIHILGLWLPEKPETLLDAMKELRRHRNERNERIVDNLRTLGMDITYEEVRALSGGVSVGRPHIALALLRHGYIRTPQEAFDRFIGPGAPAYAPKKVFSPAEGVRLLASCGATVAIAHPMLLRCPEEWLDDTVADLKVAGLDAIEAYHSEHSHKDERRCVDIADRHGLVLTGGSDYHGKAKPAISLGRGRGGLRVTTHVLDNLKRHRRERGLEGHHHHHH | soluble

Source: the DeepSol protein solubility set
